Assay results as given in PMC3817407.
Where “and” joins values, the source holds several entries; their conditions need not be identical. Equal values may be shown once.

T1: ECF33_375
T1 chain: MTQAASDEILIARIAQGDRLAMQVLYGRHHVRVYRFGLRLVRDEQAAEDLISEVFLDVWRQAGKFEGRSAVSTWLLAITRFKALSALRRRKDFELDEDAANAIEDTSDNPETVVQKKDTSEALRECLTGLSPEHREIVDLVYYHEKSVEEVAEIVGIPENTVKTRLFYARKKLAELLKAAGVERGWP

T2: ECF28_1040
T2 chain: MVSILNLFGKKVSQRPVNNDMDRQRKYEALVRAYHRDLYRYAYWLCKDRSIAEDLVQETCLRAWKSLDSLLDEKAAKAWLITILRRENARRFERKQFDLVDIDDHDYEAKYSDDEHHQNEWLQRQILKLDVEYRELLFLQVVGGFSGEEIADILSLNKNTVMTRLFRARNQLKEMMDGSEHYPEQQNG

T3: ECF04_1609
T3 chain: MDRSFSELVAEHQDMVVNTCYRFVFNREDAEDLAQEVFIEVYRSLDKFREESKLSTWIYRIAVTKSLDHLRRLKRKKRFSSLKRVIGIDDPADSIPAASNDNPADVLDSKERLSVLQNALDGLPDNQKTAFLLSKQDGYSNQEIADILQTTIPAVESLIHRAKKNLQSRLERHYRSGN

T4: ECF25_1643
T4 chain: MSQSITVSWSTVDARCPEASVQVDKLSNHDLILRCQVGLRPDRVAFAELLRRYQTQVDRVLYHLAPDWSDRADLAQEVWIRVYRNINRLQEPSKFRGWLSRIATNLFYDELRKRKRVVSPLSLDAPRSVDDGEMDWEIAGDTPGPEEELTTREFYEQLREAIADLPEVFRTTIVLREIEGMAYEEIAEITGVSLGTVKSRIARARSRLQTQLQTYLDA

T5: ECF33_423
T5 chain: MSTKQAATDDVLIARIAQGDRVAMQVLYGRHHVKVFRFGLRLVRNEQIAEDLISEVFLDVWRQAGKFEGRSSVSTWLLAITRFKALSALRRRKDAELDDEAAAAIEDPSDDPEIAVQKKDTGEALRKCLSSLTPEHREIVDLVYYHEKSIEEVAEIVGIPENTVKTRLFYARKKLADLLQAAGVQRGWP

T6: ECF14_1324
T6 chain: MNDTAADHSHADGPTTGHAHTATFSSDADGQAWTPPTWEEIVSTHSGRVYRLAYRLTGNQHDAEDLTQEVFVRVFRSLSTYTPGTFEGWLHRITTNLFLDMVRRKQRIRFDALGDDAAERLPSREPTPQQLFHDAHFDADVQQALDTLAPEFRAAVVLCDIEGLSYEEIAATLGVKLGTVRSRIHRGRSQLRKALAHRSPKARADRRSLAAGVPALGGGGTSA

T7: ECF02_915
T7 chain: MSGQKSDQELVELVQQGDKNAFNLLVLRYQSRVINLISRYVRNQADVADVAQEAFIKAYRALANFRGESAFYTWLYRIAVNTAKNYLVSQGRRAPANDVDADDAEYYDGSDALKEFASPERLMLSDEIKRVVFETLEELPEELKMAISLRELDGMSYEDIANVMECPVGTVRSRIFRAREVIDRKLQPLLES

T8: ECF12_807
T8 chain: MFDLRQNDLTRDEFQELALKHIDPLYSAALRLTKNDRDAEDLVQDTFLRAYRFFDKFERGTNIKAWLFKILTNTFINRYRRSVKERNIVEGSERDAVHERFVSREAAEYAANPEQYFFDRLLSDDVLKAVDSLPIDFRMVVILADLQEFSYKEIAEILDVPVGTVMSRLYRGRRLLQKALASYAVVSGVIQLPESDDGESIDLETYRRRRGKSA

T9: ECF11_987
T9 chain: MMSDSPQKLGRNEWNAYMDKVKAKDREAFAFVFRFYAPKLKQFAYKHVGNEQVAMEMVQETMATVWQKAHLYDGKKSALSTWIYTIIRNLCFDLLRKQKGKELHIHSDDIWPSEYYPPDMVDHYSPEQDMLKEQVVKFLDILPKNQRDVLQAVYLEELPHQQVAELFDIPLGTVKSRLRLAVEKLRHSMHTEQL

T10: ECF30_35
T10 chain: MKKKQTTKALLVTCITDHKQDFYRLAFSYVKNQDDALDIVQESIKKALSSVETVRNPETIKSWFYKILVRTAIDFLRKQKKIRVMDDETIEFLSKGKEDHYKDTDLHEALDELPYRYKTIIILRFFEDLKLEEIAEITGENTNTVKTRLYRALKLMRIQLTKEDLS

T11: ECF35_3582
T11 chain: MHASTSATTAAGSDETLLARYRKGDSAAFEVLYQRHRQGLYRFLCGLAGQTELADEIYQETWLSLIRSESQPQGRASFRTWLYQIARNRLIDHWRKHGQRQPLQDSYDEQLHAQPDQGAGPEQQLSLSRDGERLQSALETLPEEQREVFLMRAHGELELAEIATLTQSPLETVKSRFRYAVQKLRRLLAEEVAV

T12: ECF22_1147
T12 chain: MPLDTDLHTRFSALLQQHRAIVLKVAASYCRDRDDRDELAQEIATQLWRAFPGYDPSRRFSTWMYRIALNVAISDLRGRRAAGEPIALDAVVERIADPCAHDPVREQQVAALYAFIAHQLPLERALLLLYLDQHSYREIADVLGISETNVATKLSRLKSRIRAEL

T13: ECF28_1088
T13 chain: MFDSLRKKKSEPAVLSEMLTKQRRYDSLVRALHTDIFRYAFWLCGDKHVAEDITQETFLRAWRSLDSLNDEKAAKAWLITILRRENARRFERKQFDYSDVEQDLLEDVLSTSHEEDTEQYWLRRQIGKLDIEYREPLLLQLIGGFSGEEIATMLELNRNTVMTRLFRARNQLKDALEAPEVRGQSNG

T14: ECF17_1691
T14 chain: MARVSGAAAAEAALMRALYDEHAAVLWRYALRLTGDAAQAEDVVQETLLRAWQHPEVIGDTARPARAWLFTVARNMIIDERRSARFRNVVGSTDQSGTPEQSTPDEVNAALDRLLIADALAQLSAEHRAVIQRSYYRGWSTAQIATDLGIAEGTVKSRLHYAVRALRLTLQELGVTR

B1: AS03_1198 (protein)
chain: MDKDFDFDNIGKRTPYRTPDNFFEETQRKILERTVDEQRKKRRLKRIIPTVIAVAAVLAGILFTPSLRYMNTDTPSASNILAVDKNNVTTDPVDKWIKELSDEELEELVSFSENDIFLN
B2: AS11_987 (protein)
chain: MNKHPDNNLLEAYASGSIDAVSGLVVATHLETCSKCRAYVNQVEASQANTVSESPSEYSPEFDDMLNDIINAEPVNDNVVIQDTAFVNVAGKSFELPKTLVRFSDLVGSWRSYGGKVFSAQIDLGEDARVSLMYIGENVQIPQHTHRGLESTLVLHGGFSDEDGQYEEGDLMVRDASVKHSPFTQEGEDCLCLTVLTEPMIFTQGVARIFNLFGKGLYP
B3: AS14_1324 (protein)
chain: MSGSRPEPEGHLAEQHLGDRLSALVDGELGHDARERVLAHVATCPKCKAEVDAQRRLKNVFAEAAPPAPSESFLARLQGLPGGGDSDGGGSPFSGLPGGFGASAASGVFGPRRDERFEFDYVPAGSHTPVLPSATSGRGFRIHEVGRHESDRSASRGLRFAFAAAGAVSLAAIALGGVTLGTPDTTTEARGSGSGSNVTPLRTPGSAAATGSESQRRRTAGPLLGQGQRALGDLPVASTTASAPLLPGMPAPAGGDARQQAVRALTTPVTAGAAAMSPLIRPLEAVPPLSLSSWSAAPEVRPPGLLAAPDPAPSPYPAASPAASSSPLR
B4: AS01_3473 (protein)
chain: MSNYDNAELLALWLEGKLTPKQRDEFEQRCIQDSQFAEQVDAAAMVKIGADDYSSSEVPQWNKAATFEPQQANNSGSWLSGVSLVTSALAIVLVLTGTQVTTSEGELRIRFGSGQSEQALVKLVDSKLDAFKQNQQDAFTLYAQTLQQQQSESASQLTNYLLSSSRKERREDFAELIKFVNQQRSDDQLFYARQLNQLQQDVYHDATGVALESIQQ
B5: AS03_1244 (protein)
chain: MKQFDPDVNIRPKEDSIRHYSVPDDYFASFTDKLMAQIPAVKEENTVVVPSVALWPKLRPLLYLAASFLLMIGMFKAFSLFGVGSDTGRTTSTSAGLVALDHGDTRWSEDTDYRDFLHDNCAETVSDEWVLTDFSE
B6: AS04_1609 (protein)
chain: MNRTTEQRNAEVMKTIGLLDQMPRVEVDHLFRVRLMQRIEAMEVKKTSWSALPGGAFNPRLAFMALLLMLNIASALMLFMHGTPQATGSSGAIAESLTEDYGGPALSYYDDQTTIDR
B7: AS15_436 (protein)
chain: MAQSTEPKASPQEATAKGGDNTKGKSRKELQQQIDENLRRVYEEALVQEVPDRFAMLLDQLRQKGTGK

Legend:
ECF33_375 = biological target: T1, ECF33_375
ECF28_1040 = biological target: T2, ECF28_1040
ECF04_1609 = biological target: T3, ECF04_1609
ECF25_1643 = biological target: T4, ECF25_1643
ECF33_423 = biological target: T5, ECF33_423
ECF14_1324 = biological target: T6, ECF14_1324
ECF02_915 = biological target: T7, ECF02_915
ECF12_807 = biological target: T8, ECF12_807
ECF11_987 = biological target: T9, ECF11_987
ECF30_35 = biological target: T10, ECF30_35
ECF35_3582 = biological target: T11, ECF35_3582
ECF22_1147 = biological target: T12, ECF22_1147
ECF28_1088 = biological target: T13, ECF28_1088
ECF17_1691 = biological target: T14, ECF17_1691

Row | Binder | fold repression (ECF33_375) | fold repression (ECF28_1040) | fold repression (ECF04_1609) | fold repression (ECF25_1643) | fold repression (ECF33_423) | fold repression (ECF14_1324) | fold repression (ECF02_915) | fold repression (ECF12_807) | fold repression (ECF11_987) | fold repression (ECF30_35) | fold repression (ECF35_3582) | fold repression (ECF22_1147) | fold repression (ECF26_4464) | fold repression (ECF28_1088) | fold repression (ECF17_1691)
1 | B1 | 0.909 | 1.23 | 1.54 | 0.95 and 0.944 | 0.857 | 0.798 | 2.43 | 1.43 | 1.61 | 1.17 | 1.05 | 1.28 | 1.48 | 1.24 | 0.986
2 | B2 | 1.99 | 2.02 | 2.66 | 2.1 and 1.71 | 2.38 | 3.15 | 3.1 | 4.25 | 77.4 | 2.89 | 1.71 | 2.64 | 2.97 | 1.97 | 2.68
3 | B3 | 3.42 | 4.3 | 4.65 | 3.84 and 3.33 | 4.28 | 47.4 | 2.86 | 8.92 | 6.84 | 3.36 | 4.28 | 8 | 15.9 | 3.46 | 4.81
4 | B4 | 1.13 | 2.3 | 1.67 | 1.37 and 1.13 | 1.1 | 2.61 | 2.34 | 3.57 | 1.52 | 1.56 | 1.49 | 3.4 | 2.22 | 1.59 | 1.97
5 | B5 | 1.51 | 1.68 | 2.42 | 1.23 and 1.24 | 1.65 | 2.35 | 2 | 3.08 | 2.14 | 1.54 | 1.37 | 2.3 | 2.21 | 1.36 | 1.44
6 | B6 | 3.16 | 1.03 | 7.83 | 1.05 and 1.18 | 3.53 | 8.02 | 2.99 | 5.09 | 6.21 | 1.99 | 3.24 | 5.37 | 6.23 | 0.742 | 1.22
7 | B7 | 2.28 | 4.28 | 5.41 | 1.19 and 1.27 | 3.04 | 9 | 1.55 | 5.3 | 2.8 | 2.1 | 1.1 | 6.02 | 24.7 | 2.98 | 4.15
